The target in assay [1] is recombinant hMPV B2 F protein (human metapneumovirus (subgroup B2)). As to the kind of experiment: ELISA.
Assay [2] has as its target monomeric hMPV B2 F protein, treated with trypsin (human metapneumovirus (subgroup B2)). As to the kind of experiment: ELISA.
Assay [3] addresses hMPV F protein of subgroup B1 (ELISA panel) (human metapneumovirus (subgroup B1)). As to the kind of experiment: ELISA.
For assay [4], the target named is post-fusion trimeric hMPV B2 F (trypsin treated) (human metapneumovirus (subgroup B2)). Briefly: ELISA.
In assay [5] the target is hMPV F protein of subgroup A2 (ELISA panel) (human metapneumovirus (subgroup A2)). As to the kind of experiment: ELISA.
For assay [6], the target named is hMPV F protein of subgroup A1 (ELISA panel) (human metapneumovirus (subgroup A1)). Briefly: ELISA.
Assay [7] concerns the target hMPV B2 F GCN4. As to the kind of experiment: ELISA.
The target of assay [8] is biotinylated monomeric hMPV B2 F protein (human metapneumovirus (subgroup B2), biotin (site not stated)). As to the kind of experiment: BLI.

B1: MPE8 monoclonal antibody (recombinant, human IgG1) (antibody, V domains shown)
VH: EVQLVESGGGLVKPGGSLRLSCAASGFTFSSYSMNWVRQAPGKGLEWVSSISSSSSYIYYADSVKGRFTISRDNAKNSLYLQMNSLRAEDTAVYYCARARATGYNSITPYFDIWGQGTLVTVSS
VL: QSVVTQTPSVSGAPGQRVTISCTGSSSNIGAGYDVHWYQQLPGTAPKLLIYDNNNRPSGVPDRFSASKSGTSASLAITGLQAEDEADYYCQSYDRSLSGVFGTGTKVTVL
With B1, the EC50 in assay [1] worked out at 2 µg/mL; in assay [2], 0.63 µg/mL; in assay [3] it was 3.1 µg/mL; in assay [4] it was 1.3 µg/mL; in assay [5], 4.3 µg/mL; in assay [6] it was 1.3 µg/mL. Besides, it took 4.7 µg/mL to reach a half-maximal effect in assay [7] (EC50).

B2: MPV458 human monoclonal antibody (antibody, V domains shown)
VH: QGKLVESGGGVIQPGRSLRLSCAASGFDFSRYGLHWVRQAPGKGLEWVAVIVYAGSNKYYADSVKGRFTISKDNSKNTMHLQMSDLRTEDTAVYYCARDQAFDLWGQGTMVTVSS
VL: DIQMTQSPASLSASVGDRVTITCQASQGISRSVNWYQQKPGKAPKLLIFDASHLERGVPSRFSGSGYGTDFTFTISSLQPEDIATYYCQQYDNLRISFGQGTRLEIK
Turning to B2, the EC50 in assay [1] was found to be 0.12 µg/mL; in assay [2], 0.027 µg/mL; in assay [3], 0.39 µg/mL; in assay [4], 0.13 µg/mL; in assay [5], 0.39 µg/mL; in assay [6], 0.33 µg/mL. In assay [7], this molecule had an EC50 of 0.2 µg/mL.

B3: MPV458 Fab (Fab, V domains shown)
VH: QGKLVESGGGVIQPGRSLRLSCAASGFDFSRYGLHWVRQAPGKGLEWVAVIVYAGSNKYYADSVKGRFTISKDNSKNTMHLQMSDLRTEDTAVYYCARDQAFDLWGQGTMVTVSS
VL: DIQMTQSPASLSASVGDRVTITCQASQGISRSVNWYQQKPGKAPKLLIFDASHLERGVPSRFSGSGYGTDFTFTISSLQPEDIATYYCQQYDNLRISFGQGTRLEIK
Regarding B3, in assay [8], the koff was 8.4e-05 s⁻¹.

The values above are taken from article PMC7598476 (2020).
